Measurements as given in paper PMC11784651.
Values belong to the substance of their own block, whether it stands above or below them.

Tests used:
[1] = target: ISB 1442, CD47 x CD38 bispecific biparatopic antibody (2 + 1 BEAT format) (human); experiment: flow cytometry on cells
[2] = target: Biotinylated human CD38-Avi-His (human); experiment: SPR
[3] = target: Biotinylated human CD38-Avi-His (Acrobiosystems, catalog NO: CD8-H82E7) (human); experiment: SPR
[4] = target: CD38 (soluble, in the SEC-MALS and electron microscopy of the ISB 1442/CD38 complex) (human); experiment: SEC-MALS

molar ratio CD38/antibody at IC50 (mol CD38 per mol antibody) [1]: 2.32
Substance: soluble CD38 (sCD38) (domain or fragment)

Kd [2]: < 0.01 nM
Substance: ISB 1442 (bispecific antibody)

fold slower dissociation at 300 RU than at 10 RU CD38 surface density [3]: 5.8 fold
stoichiometry N (ISB 1442 per CD38 (2:2 complex)) [4]: 1
Substance: ISB 1442, CD47 x CD38 bispecific biparatopic antibody (2 + 1 BEAT format) (bispecific antibody)
